Data published in publication PMC8726733 (mAbs, 2021).

Experiments:
[1] = biological target: biotinylated avitag-labeled canine CTLA4 (dog, UniProt Q9XSI1, biotin (biotinylated avitag)); assay: ELISA
[2] = biological target: feline CTLA4 of feline CD5+ leucocytes (Felis catus, endogenous; allele not …, UniProt Q9XSY7); assay: flow cytometry on cells

Chain of biotinylated avitag-labeled canine CTLA4 (Q9XSI1 36-161): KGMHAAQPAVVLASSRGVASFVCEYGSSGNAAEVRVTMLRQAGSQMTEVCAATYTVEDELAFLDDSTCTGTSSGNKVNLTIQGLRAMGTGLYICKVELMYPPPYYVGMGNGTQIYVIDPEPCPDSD

B1: A1 soluble canine anti-cCTLA4 scFv (scFv, V domains shown)
VH: EVQLVESGGDLVKPAGSLRLSCVASGFSFSSYAMNWVRQAPGKGLQWIAGINSGGSSTSHIDAIKGRFTISRDNAKNTLYLQMNSLRAEDTAVYYCAISNWAYWGQGTLVTVSS
VL: QAVLNQPASVSGSLGQRVTISCTGSSSDIGKSYVAWYQQLPGTGPRTLINVDGNRASGVPDRFSVSRSGNTATLTISGLQAEDEADYHCSSWDWSLHTYVFGSGTQLTIL
**Q.** Does B1 bind [1]?
**A.** Result: binds

B2: A1mut2 fully canine IgGA (antibody, V domains shown)
VH: EVQLVETGGDLVKPGGSLRLSCVASGFSFSSYAMNWVRQAPEKGLQLVGGINSGGSSTYYTDAVKGRFTISRDNAKNTVYLQMNSLRAEDTAVYYCAISNWAYWGQGTLVTVSS
VL: B1 VL
**Q.** Does B2 bind [2]?
**A.** Result: binds
